Earlier results in paper PMC5741096.

Tests used:
[1] = target: IL-2Rβ/IL-2Rγ (Mus musculus) (UniProt P16297)
[2] = target: IL-2Rα/IL-2Rβ/IL-2Rγ (Mus musculus) (UniProt P01590)
Sequence of UniProt P01590 (P01590 22-236, chain 1 of 3): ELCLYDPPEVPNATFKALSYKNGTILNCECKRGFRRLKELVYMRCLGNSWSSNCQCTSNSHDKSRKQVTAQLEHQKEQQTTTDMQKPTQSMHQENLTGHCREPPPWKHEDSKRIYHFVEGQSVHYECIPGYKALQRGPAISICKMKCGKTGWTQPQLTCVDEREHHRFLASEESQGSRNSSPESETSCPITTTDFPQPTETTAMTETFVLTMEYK
Sequence of UniProt P01590 (P16297 27-240, chain 2 of 3, further chain): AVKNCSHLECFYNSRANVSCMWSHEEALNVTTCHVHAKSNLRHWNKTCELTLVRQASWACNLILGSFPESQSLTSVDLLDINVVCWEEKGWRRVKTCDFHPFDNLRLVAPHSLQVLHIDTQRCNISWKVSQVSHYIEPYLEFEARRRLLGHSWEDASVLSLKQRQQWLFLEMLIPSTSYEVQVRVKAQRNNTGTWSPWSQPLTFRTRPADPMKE
Sequence of UniProt P01590 (P34902 23-263, chain 3 of 3, further chain): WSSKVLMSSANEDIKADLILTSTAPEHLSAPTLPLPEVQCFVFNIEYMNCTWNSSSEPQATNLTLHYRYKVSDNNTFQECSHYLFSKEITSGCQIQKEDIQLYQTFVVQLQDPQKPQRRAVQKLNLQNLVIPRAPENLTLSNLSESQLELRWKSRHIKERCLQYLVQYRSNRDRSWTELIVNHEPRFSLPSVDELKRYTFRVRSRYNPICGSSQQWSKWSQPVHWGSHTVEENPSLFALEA

Sequence of UniProt P16297 (P16297 27-240, chain 1 of 2): as the sequence (P16297 27-240, chain 2 of 3, further chain) above
Sequence of UniProt P16297 (P34902 23-263, chain 2 of 2, further chain): as the sequence (P34902 23-263, chain 3 of 3, further chain) above

IL-2 (from UniProt P04351)
Kd [1]: 1 nM | Kd [2]: 0.01 nM
